Laboratory results as given in US20260167699A1 (Chugai, published 2026).

B1: GpH7-A5/GpH7-B3 variant L328_13S/GpL16-k0 (antibody, human IgG1, kappa)
heavy 1: not shown
heavy 2: not shown
light: DIVMTQSPLSLPVTPGEPASISCQASESLVHSNRNTYLHWYLQKPGQSPQLLIYKVSNRFSGVPDRFSGSGSGTDFTLKISRVEAEDVGVYYCSQNTHVPPTFGQGTKVEIERTVAAPSVFIFPPSDEQLKSGTASVVCLLNNFYPREAKVQWKVDNALQSGNSQESVTEQDSKDSTYSLSSTLTLSKADYEKHKVYACEVTHQGLSSPVTKSFNRGEC
notes: copies: 1 + 1 + 2
B2: GpH7-A5/GpH7-B3 variant L328_14T/GpL16-k0 (antibody, human IgG1, kappa)
heavy 1: not shown
heavy 2: not shown
light: DIVMTQSPLSLPVTPGEPASISCQASESLVHSNRNTYLHWYLQKPGQSPQLLIYKVSNRFSGVPDRFSGSGSGTDFTLKISRVEAEDVGVYYCSQNTHVPPTFGQGTKVEIERTVAAPSVFIFPPSDEQLKSGTASVVCLLNNFYPREAKVQWKVDNALQSGNSQESVTEQDSKDSTYSLSSTLTLSKADYEKHKVYACEVTHQGLSSPVTKSFNRGEC
notes: copies: 1 + 1 + 2
B3: GpH7-A5/GpH7-B3 variant L328_15Y/GpL16-k0 (antibody, human IgG1, kappa)
heavy 1: not shown
heavy 2: not shown
light: DIVMTQSPLSLPVTPGEPASISCQASESLVHSNRNTYLHWYLQKPGQSPQLLIYKVSNRFSGVPDRFSGSGSGTDFTLKISRVEAEDVGVYYCSQNTHVPPTFGQGTKVEIERTVAAPSVFIFPPSDEQLKSGTASVVCLLNNFYPREAKVQWKVDNALQSGNSQESVTEQDSKDSTYSLSSTLTLSKADYEKHKVYACEVTHQGLSSPVTKSFNRGEC
notes: copies: 1 + 1 + 2
B4: GpH7-A5/GpH7-B3 variant L328_16H/GpL16-k0 (antibody, human IgG1, kappa)
heavy 1: not shown
heavy 2: not shown
light: DIVMTQSPLSLPVTPGEPASISCQASESLVHSNRNTYLHWYLQKPGQSPQLLIYKVSNRFSGVPDRFSGSGSGTDFTLKISRVEAEDVGVYYCSQNTHVPPTFGQGTKVEIERTVAAPSVFIFPPSDEQLKSGTASVVCLLNNFYPREAKVQWKVDNALQSGNSQESVTEQDSKDSTYSLSSTLTLSKADYEKHKVYACEVTHQGLSSPVTKSFNRGEC
notes: copies: 1 + 1 + 2
B5: GpH7-A5/GpH7-B3 variant L328_18N/GpL16-k0 (antibody, human IgG1, kappa)
heavy 1: not shown
heavy 2: not shown
light: DIVMTQSPLSLPVTPGEPASISCQASESLVHSNRNTYLHWYLQKPGQSPQLLIYKVSNRFSGVPDRFSGSGSGTDFTLKISRVEAEDVGVYYCSQNTHVPPTFGQGTKVEIERTVAAPSVFIFPPSDEQLKSGTASVVCLLNNFYPREAKVQWKVDNALQSGNSQESVTEQDSKDSTYSLSSTLTLSKADYEKHKVYACEVTHQGLSSPVTKSFNRGEC
notes: copies: 1 + 1 + 2
B6: GpH7-A5/GpH7-B3 variant L328_19Q/GpL16-k0 (antibody, human IgG1, kappa)
heavy 1: not shown
heavy 2: not shown
light: DIVMTQSPLSLPVTPGEPASISCQASESLVHSNRNTYLHWYLQKPGQSPQLLIYKVSNRFSGVPDRFSGSGSGTDFTLKISRVEAEDVGVYYCSQNTHVPPTFGQGTKVEIERTVAAPSVFIFPPSDEQLKSGTASVVCLLNNFYPREAKVQWKVDNALQSGNSQESVTEQDSKDSTYSLSSTLTLSKADYEKHKVYACEVTHQGLSSPVTKSFNRGEC
notes: copies: 1 + 1 + 2
B7: GpH7-A5/GpH7-B3 variant N325_09D/GpL16-k0 (antibody, human IgG1, kappa)
heavy 1: not shown
heavy 2: not shown
light: DIVMTQSPLSLPVTPGEPASISCQASESLVHSNRNTYLHWYLQKPGQSPQLLIYKVSNRFSGVPDRFSGSGSGTDFTLKISRVEAEDVGVYYCSQNTHVPPTFGQGTKVEIERTVAAPSVFIFPPSDEQLKSGTASVVCLLNNFYPREAKVQWKVDNALQSGNSQESVTEQDSKDSTYSLSSTLTLSKADYEKHKVYACEVTHQGLSSPVTKSFNRGEC
notes: copies: 1 + 1 + 2
B8: GpH7-A5/GpH7-B3 variant N325_13S/GpL16-k0 (antibody, human IgG1, kappa)
heavy 1: not shown
heavy 2: not shown
light: DIVMTQSPLSLPVTPGEPASISCQASESLVHSNRNTYLHWYLQKPGQSPQLLIYKVSNRFSGVPDRFSGSGSGTDFTLKISRVEAEDVGVYYCSQNTHVPPTFGQGTKVEIERTVAAPSVFIFPPSDEQLKSGTASVVCLLNNFYPREAKVQWKVDNALQSGNSQESVTEQDSKDSTYSLSSTLTLSKADYEKHKVYACEVTHQGLSSPVTKSFNRGEC
notes: copies: 1 + 1 + 2
B9: GpH7-A5/GpH7-B3 variant N325_16H/GpL16-k0 (antibody, human IgG1, kappa)
heavy 1: not shown
heavy 2: not shown
light: DIVMTQSPLSLPVTPGEPASISCQASESLVHSNRNTYLHWYLQKPGQSPQLLIYKVSNRFSGVPDRFSGSGSGTDFTLKISRVEAEDVGVYYCSQNTHVPPTFGQGTKVEIERTVAAPSVFIFPPSDEQLKSGTASVVCLLNNFYPREAKVQWKVDNALQSGNSQESVTEQDSKDSTYSLSSTLTLSKADYEKHKVYACEVTHQGLSSPVTKSFNRGEC
notes: copies: 1 + 1 + 2
B10: GpH7-A5/GpH7-B3 variant P238_08L/GpL16-k0 (antibody, human IgG1, kappa)
heavy 1: not shown
heavy 2: not shown
light: DIVMTQSPLSLPVTPGEPASISCQASESLVHSNRNTYLHWYLQKPGQSPQLLIYKVSNRFSGVPDRFSGSGSGTDFTLKISRVEAEDVGVYYCSQNTHVPPTFGQGTKVEIERTVAAPSVFIFPPSDEQLKSGTASVVCLLNNFYPREAKVQWKVDNALQSGNSQESVTEQDSKDSTYSLSSTLTLSKADYEKHKVYACEVTHQGLSSPVTKSFNRGEC
notes: copies: 1 + 1 + 2
B11: GpH7-A5/GpH7-B3 variant P238_09D/GpL16-k0 (antibody, human IgG1, kappa)
heavy 1: not shown
heavy 2: not shown
light: DIVMTQSPLSLPVTPGEPASISCQASESLVHSNRNTYLHWYLQKPGQSPQLLIYKVSNRFSGVPDRFSGSGSGTDFTLKISRVEAEDVGVYYCSQNTHVPPTFGQGTKVEIERTVAAPSVFIFPPSDEQLKSGTASVVCLLNNFYPREAKVQWKVDNALQSGNSQESVTEQDSKDSTYSLSSTLTLSKADYEKHKVYACEVTHQGLSSPVTKSFNRGEC
notes: copies: 1 + 1 + 2
B12: GpH7-A5/GpH7-B3 variant P238_10E/GpL16-k0 (antibody, human IgG1, kappa)
heavy 1: not shown
heavy 2: not shown
light: DIVMTQSPLSLPVTPGEPASISCQASESLVHSNRNTYLHWYLQKPGQSPQLLIYKVSNRFSGVPDRFSGSGSGTDFTLKISRVEAEDVGVYYCSQNTHVPPTFGQGTKVEIERTVAAPSVFIFPPSDEQLKSGTASVVCLLNNFYPREAKVQWKVDNALQSGNSQESVTEQDSKDSTYSLSSTLTLSKADYEKHKVYACEVTHQGLSSPVTKSFNRGEC
notes: copies: 1 + 1 + 2

target: T1, FcγRIIIa (human, UniProt P08637 17-208); experiment: SPR (Biacore);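 further: antibody variants captured on an SPR sensor chip, with FcγRIIIa passed over as analyte in HBS-EP+ buffer at 25 °C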
T1 construct: extracellular domain; also called 3a; FcγRIIIa extracellular domain
T1 sequence (P08637 other isoform, or with tags, fused parts or gaps): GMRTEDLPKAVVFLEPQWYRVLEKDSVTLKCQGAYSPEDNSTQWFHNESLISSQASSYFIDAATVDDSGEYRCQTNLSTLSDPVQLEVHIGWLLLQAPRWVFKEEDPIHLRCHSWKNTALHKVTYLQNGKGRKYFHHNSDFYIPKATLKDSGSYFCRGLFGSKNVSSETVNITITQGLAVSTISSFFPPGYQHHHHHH

First: B1
Second: B2
The “He/Con 3a” value of the first is lower: 73.7 % of GpH7-A5/GpH7-B3/GpL16-k0 for the first, 77.4 % of GpH7-A5/GpH7-B3/GpL16-k0 for the second.

Going from B3 to B4, the “He/Con 3a” value falls from 70.2 % of GpH7-A5/GpH7-B3/GpL16-k0 to 55.9 % of GpH7-A5/GpH7-B3/GpL16-k0.

Compared with B5, B6 is higher in “He/Con 3a” value: 51.1 % of GpH7-A5/GpH7-B3/GpL16-k0 for the first, 83.4 % of GpH7-A5/GpH7-B3/GpL16-k0 for the second.

Going from B7 to B8, the “He/Con 3a” value rises from 53 % of GpH7-A5/GpH7-B3/GpL16-k0 to 71.9 % of GpH7-A5/GpH7-B3/GpL16-k0.

Going from B9 to B10, the “He/Con 3a” value rises from 68 % of GpH7-A5/GpH7-B3/GpL16-k0 to 71.3 % of GpH7-A5/GpH7-B3/GpL16-k0.

First: B11
Second: B12
The “He/Con 3a” value of the first is higher: 100 % of GpH7-A5/GpH7-B3/GpL16-k0 for the first, 98.9 % of GpH7-A5/GpH7-B3/GpL16-k0 for the second.
